Measurements as given in patent US20050142568A1 (published 2005).

Columns and labels:
Test in all cases: GST pull-down, 35S-Met protein vs GST fusion; - means no detectable binding (footnote a)
[1] = biological target: T1, GST (glutathione-S transferase alone) (UniProt P08515 1-218 = GST)
T1 construct: Purified GST used as negative control bait on glutathione sepharose beads; also called OST
Method in brief: (§1)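 GST alone or GST fusions (5 μg) on glutathione beads incubated 2 hours at 4° C. with in vitro translated ³⁵S-Met-labeled proteins; bound protein by 12% SDS-PAGE and autoradiography. Scored against background binding of ³⁵S-luciferase to GST fusions and of labeled proteins to GST.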

GST-CRN-4 = biological target: T2, GST-CRN-4 (C. elegans, UniProt Q10905 1-298)
T2 construct: also called CRN-4 GST-fusion protein; not shown: glutathione S-transferase tag encoded by vector pGEX4T-2
T2 sequence (looked up): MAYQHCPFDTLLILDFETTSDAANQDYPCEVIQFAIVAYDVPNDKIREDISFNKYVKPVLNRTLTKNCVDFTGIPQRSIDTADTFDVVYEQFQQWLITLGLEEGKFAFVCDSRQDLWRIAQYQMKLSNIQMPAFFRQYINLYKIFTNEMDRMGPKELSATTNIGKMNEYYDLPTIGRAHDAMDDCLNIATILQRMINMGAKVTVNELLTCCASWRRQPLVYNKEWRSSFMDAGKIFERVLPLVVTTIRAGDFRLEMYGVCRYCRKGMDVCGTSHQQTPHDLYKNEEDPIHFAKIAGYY
Method in brief: as §1

GST-CRN-5 = biological target: T3, GST-CRN-5 (C. elegans, UniProt G5EG59 1-214)
T3 construct: also called CRN-5 GST-fusion protein; not shown: GST carrier and the linker of vector pGEX4T-2
T3 sequence: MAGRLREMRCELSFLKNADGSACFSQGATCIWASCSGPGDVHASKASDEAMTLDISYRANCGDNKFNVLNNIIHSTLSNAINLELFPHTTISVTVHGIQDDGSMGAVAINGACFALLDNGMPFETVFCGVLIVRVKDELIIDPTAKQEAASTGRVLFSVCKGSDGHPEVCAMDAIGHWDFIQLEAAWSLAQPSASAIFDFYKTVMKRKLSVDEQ
Method in brief: as §1

Measured: binding result

T1 sequence (P08515 whole entry): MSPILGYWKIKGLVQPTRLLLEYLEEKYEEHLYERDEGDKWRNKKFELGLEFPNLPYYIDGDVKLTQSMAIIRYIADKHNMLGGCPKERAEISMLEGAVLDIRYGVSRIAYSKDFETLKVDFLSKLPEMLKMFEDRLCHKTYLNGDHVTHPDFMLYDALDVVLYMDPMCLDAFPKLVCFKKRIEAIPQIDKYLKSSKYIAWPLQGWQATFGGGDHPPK

B1: ^35S-Methionine labeled CRN-2 (enzyme, C. elegans)
chain: MALYELVDIGANLGHPSYQKDLNDVLDRAKQAGLSKIMVTGTSEKISHECADLVEKYPGFLYFTAGVHPHDAKDWNDGTLEALKKLQENPSCVAVGECGLDFNRNFSPQDVQKEVFAKQVDMAVKLQKPLFIHEREAHEDMVKILTAAGPSLPPAVIHCFTGTVVEAKKYLEMGFYIGLTGFLWKDRSDNGVQAGLRSGEIPIEKLVLETDAPYMYPKINDKKIPKEIKSLITPETEALHNFSSFNRNEPCSLAAVCELVAAFAGRDPKEVAKITTENAKKVYKLE
no binding: all assays above
